From article PMC3592467 (Nucleic Acids Research, 2012)

The binders below were run against EED-GFP (UniProt O75530 1-441) (assay: affinity purification with mass spectrometry).
EED-GFP, sequence (O75530 whole entry): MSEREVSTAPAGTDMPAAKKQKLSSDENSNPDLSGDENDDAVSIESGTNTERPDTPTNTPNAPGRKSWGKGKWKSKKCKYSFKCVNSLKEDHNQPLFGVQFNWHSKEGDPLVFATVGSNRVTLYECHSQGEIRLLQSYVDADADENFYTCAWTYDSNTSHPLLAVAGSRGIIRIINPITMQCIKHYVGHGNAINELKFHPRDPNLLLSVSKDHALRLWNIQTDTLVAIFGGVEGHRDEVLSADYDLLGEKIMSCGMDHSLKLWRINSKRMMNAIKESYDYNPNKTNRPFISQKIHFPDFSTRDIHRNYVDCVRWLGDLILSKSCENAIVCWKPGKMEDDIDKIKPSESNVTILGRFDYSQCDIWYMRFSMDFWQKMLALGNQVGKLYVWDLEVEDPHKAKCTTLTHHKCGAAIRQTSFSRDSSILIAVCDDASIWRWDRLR

stoichiometry N | Binder
0.2 relative to EED | AEBP2 (natural protein) MAAAITDMADLEELSRLSPLPPGSPGSAARGRAEPPEEEEEEEEEEEEAEAEAVAALLLNGGSGGGGGGGGGGVGGGEAETMSEPSPESASQAGEDEDEEEDDEEEEDESSSSGGGEEESSAESLVGSSGGSSSDETRSLSPGAASSSSGDGDGKEGLEEPKGPRGSQGGGGGGSSSSSVVSSGGDEGYGTGGGGSSATSGGRRGSLEMSSDGEPLSRMDSEDSISSTIMDVDSTISSGRSTPAMMNGQGSTTSSSKNIAYNCCWDQCQACFNSSPDLADHIRSIHVDGQRGGVFVCLWKGCKVYNTPSTSQSWLQRHMLTHSGDKPFKCVVGGCNASFASQGGLARHVPTHFSQQNSSKVSSQPKAKEESPSKAGMNKRRKLKNKRRRSLPRPHDFFDAQTLDAIRHRAICFNLSAHIESLGKGHSVVFHSTVIAKRKEDSGKIKLLLHWMPEDILPDVWVNESERHQLKTKVVHLSKLPKDTALLLDPNIYRTMPQKRLKRTLIRKVFNLYLSKQ
~0.06 relative to the core subunits | C10orf12 (natural protein) MQRMIQQFAAEYTSKNSSTQDPSQPNSTKNQSLPKASPVTTSPTAATTQNPVLSKLLMADQDSPLDLTVRKSQSEPSEQDGVLDLSTKKSPCAGSTSLSHSPGCSSTQGNGENSTEAKAVDSNNQSKSPLEKFMVKLCTHHQKQFIRVLNDLYTESQPGTEDLQPSDSGAMDVSTCNAGCAQLSTKHKEKDALCLDMKSSASVDLFVDSSDSHSPLHLTEQTPKKPPPEINPVDGRENALTVVQKDSSELPTTKSNSINSSSVDSFTPGYLTASNCSSVNFHHIPKILEGQTTGQEQDTNVNICEDGKDHMQSSALVESLITVKMAAENSEEGNTCIIPQRNLFKALSEEAWNSGFMGNSSRTADKENTLQCPKTPLRQDLEANEQDARPKQENHLHSLGRNKVGYHLHPSDKGQFDHSKDGWLGPGPMPAVHKAANGHSRTKMISTSIKTARKSKRASGLRINDYDNQCDVVYISQPITECHFENQKSILSSRKTARKSTRGYFFNGDCCELPTVRTLARNLHSQEKASCSALASEAVFTPKQTLTIPAPRHTVDVQLPREDNPEEPSKEITSHEEGGGDVSPRKEPQEPEVCPTKIKPNLSSSPRSEETTASSLVWPLPAHLPEEDLPEGGSTVSAPTASGMSSPEHNQPPVALLDTEEMSVPQDCHLLPSTESFSGGVSEDVISRPHSPPEIVSREESPQCSENQSSPMGLEPPMSLGKAEDNQSISAEVESGDTQELNVDPLLKESSTFTDENPSETEESEAAGGIGKLEGEDGDVKCLSEKDTYDTSIDSLEENLDKKKKGKKFPEASDRCLRSQLSDSSSADRCLRNQSSDSSSACLEIKVPKNPSAKRSKKEGHPGGTTPKGLLPDSFHTETLEDTEKPSVNERPSEKDAEQEGEGGGIITRQTLKNMLDKEVKELRGEIFPSRDPITTAGQPLPGERLEIYVQSKMDEKNAHIPSESIACKRDPEQAKEEPGHIPTQHVEEAVNEVDNENTQQKDDESDAPCSSLGLSSSGSGDAARAPKSVPRPKRLTSSTYNLRHAHSLGSLDASKVTSEKEAAQVNPIMPKENGASESGDPLDEDDVDTVVDEQPKFMEWCAEEENQELIANFNAQYMKVQKGWIQLEKEGQPTPRARNKSDKLKEIWKSKKRSRKCRSSLESQKCSPVQMLFMTNFKLSNVCKWFLETTETRSLVIVKKLNTRLPGDVPPVKHPLQKYAPSSLYPSSLQAERLKKHLKKFPGATPAKNNWKMQKLWAKFRENPDQVEPEDGSDVSPGPNSEDSIEEVKEDRNSHPPANLPTPASTRILRKYSNIRGKLRAQQRLIKNEKMECPDALAVESKPSRKSVCINPLMSPKLALQVDADGFPVKPKSTEGMKGRKGKQVSEILPKAEVQSKRKRTEGSSPPDSKNKGPTVKASKEKHADGATKTPAAKRPAARDRSSQPPKKTSLKENKVKIPKKSAGKSCPPSRKEKENTNKRPSQSIASETLTKPAKQKGAGESSSRPQKATNRKQSSGKTRARPSTKTPESSAAQRKRKLKAKLDCSHSKRRRLDAK
0.47 relative to EED | C17orf96 (natural protein) METLCPAPRLAVPASPRGSPCSPTPRKPCRGTQEFSPLCLRALAFCALAKPRASSLGPGPGELAARSPVLRGPQAPLRPGGWAPDGLKHLWAPTGRPGVPNTAAGEDADVAACPRRGEEEEGGGGFPHFGVRSCAPPGRCPAPPHPRESTTSFASAPPRPAPGLEPQRGPAASPPQEPSSRPPSPPAGLSTEPAGPGTAPRPFLPGQPAEVDGNPPPAAPEAPAASPSTASPAPAAPGDLRQEHFDRLIRRSKLWCYAKGFALDTPSLRRGPERPPAKGPARGAAKKRRLPAPPPRTAQPRRPAPTLPTTSTFSLLNCFPCPPALVVGEDGDLKPASSLRLQGDSKPPPAHPLWRWQMGGPAVPEPPGLKFWGINMDES
0.12 relative to EED | Jarid2 (natural protein) MSKERPKRNIIQKKYDDSDGIPWSEERVVRKVLYLSLKEFKNSQKRQHAEGIAGSLKTVNGLLGNDQSKGLGPASEQSENEKDDASQVSSTSNDVSSSDFEEGPSRKRPRLQAQRKFAQSQPNSPSTTPVKIVEPLLPPPATQISDLSKRKPKTEDFLTFLCLRGSPALPNSMVYFGSSQDEEEVEEEDDETEDVKTATNNASSSCQSTPRKGKTHKHVHNGHVFNGSSRSTREKEPVQKHKSKEATPAKEKHSDHRADSRREQASANHPAAAPSTGSSAKGLAATHHHPPLHRSAQDLRKQVSKVNGVTRMSSLGAGVTSAKKMREVRPSPSKTVKYTATVTKGAVTYTKAKRELVKDTKPNHHKPSSAVNHTISGKTESSNAKTRKQVLSLGGASKSTGPAVNGLKVSGRLNPKSCTKEVGGRQLREGLQLREGLRNSKRRLEEAHQAEKPQSPPKKMKGAAGPAEGPGKKAPAERGLLNGHVKKEVPERSLERNRPKRATAGKSTPGRQAHGKADSASCENRSTSQPESVHKPQDSGKAEKGGGKAGWAAMDEIPVLRPSAKEFHDPLIYIESVRAQVEKFGMCRVIPPPDWRPECKLNDEMRFVTQIQHIHKLGRRWGPNVQRLACIKKHLKSQGITMDELPLIGGCELDLACFFRLINEMGGMQQVTDLKKWNKLADMLRIPRTAQDRLAKLQEAYCQYLLSYDSLSPEEHRRLEKEVLMEKEILEKRKGPLEGHTENDHHKFHPLPRFEPKNGLIHGVAPRNGFRSKLKEVGQAQLKTGRRRLFAQEKEVVKEEEEDKGVLNDFHKCIYKGRSVSLTTFYRTARNIMSMCFSKEPAPAEIEQEYWRLVEEKDCHVAVHCGKVDTNTHGSGFPVGKSEPFSRHGWNLTVLPNNTGSILRHLGAVPGVTIPWLNIGMVFSTSCWSRDQNHLPYIDYLHTGADCIWYCIPAEEENKLEDVVHTLLQANGTPGLQMLESNVMISPEVLCKEGIKVHRTVQQSGQFVVCFPGSFVSKVCCGYSVSETVHFATTQWTSMGFETAKEMKRRHIAKPFSMEKLLYQIAQAEAKKENGPTLSTISALLDELRDTELRQRRQLFEAGLHSSARYGSHDGSSTVADGKKKPRKWLQLETSERRCQICQHLCYLSMVVQENENVVFCLECALRHVEKQKSCRGLKLMYRYDEEQIISLVNQICGKVSGKNGSIENCLSKPTPKRGPRKRATVDVPPSRLSASSSSKSASSSS

These binders were tested against CDC5L–GFP (UniProt Q99459 1-802) (assay: affinity purification with mass spectrometry).
CDC5L–GFP, sequence (Q99459 whole entry): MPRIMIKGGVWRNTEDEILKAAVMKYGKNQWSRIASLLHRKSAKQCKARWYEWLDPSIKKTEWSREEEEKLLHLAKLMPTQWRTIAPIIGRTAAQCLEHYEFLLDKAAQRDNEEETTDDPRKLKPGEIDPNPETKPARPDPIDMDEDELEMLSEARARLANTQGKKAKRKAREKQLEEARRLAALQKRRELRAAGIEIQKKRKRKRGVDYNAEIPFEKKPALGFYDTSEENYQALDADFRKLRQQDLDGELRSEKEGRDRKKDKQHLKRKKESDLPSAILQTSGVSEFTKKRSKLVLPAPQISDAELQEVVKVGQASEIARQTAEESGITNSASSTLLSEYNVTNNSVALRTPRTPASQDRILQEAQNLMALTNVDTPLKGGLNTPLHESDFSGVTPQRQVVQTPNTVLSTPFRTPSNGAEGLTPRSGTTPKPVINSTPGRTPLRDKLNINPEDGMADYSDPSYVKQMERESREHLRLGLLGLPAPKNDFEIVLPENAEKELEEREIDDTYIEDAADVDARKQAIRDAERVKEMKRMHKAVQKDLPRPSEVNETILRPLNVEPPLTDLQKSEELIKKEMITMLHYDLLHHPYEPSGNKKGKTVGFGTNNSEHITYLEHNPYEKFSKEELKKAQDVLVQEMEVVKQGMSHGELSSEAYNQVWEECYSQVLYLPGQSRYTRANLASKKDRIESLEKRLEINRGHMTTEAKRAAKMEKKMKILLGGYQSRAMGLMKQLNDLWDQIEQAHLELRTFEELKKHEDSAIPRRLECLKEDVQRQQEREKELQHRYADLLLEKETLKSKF

stoichiometry N | stoichiometry with CDC5L as a dimer (CDC5L 2) [per CDC5L dimer] | Binder
0.37 relative to CDC5L | 0.72 | PLRG1 (natural protein) MVEEVQKHSVHTLVFRSLKRTHDMFVADNGKPVPLDEESHKRKMAIKLRNEYGPVLHMPTSKENLKEKGPQNATDSYVHKQYPANQGQEVEYFVAGTHPYPPGPGVALTADTKIQRMPSESAAQSLAVALPLQTKADANRTAPSGSEYRHPGASDRPQPTAMNSIVMETGNTKNSALMAKKAPTMPKPQWHPPWKLYRVISGHLGWVRCIAVEPGNQWFVTGSADRTIKIWDLASGKLKLSLTGHISTVRGVIVSTRSPYLFSCGEDKQVKCWDLEYNKVIRHYHGHLSAVYGLDLHPTIDVLVTCSRDSTARIWDVRTKASVHTLSGHTNAVATVRCQAAEPQIITGSHDTTIRLWDLVAGKTRVTLTNHKKSVRAVVLHPRHYTFASGSPDNIKQWKFPDGSFIQNLSGHNAIINTLTVNSDGVLVSGADNGTMHLWDWRTGYNFQRVHAAVQPGSLDSESGIFACAFDQSESRLLTAEADKTIKVYREDDTATEETHPVSWKPEIIKRKRF
2.08 relative to CDC5L | 4.16 | PRP19 (natural protein) MSLICSISNEVPEHPCVSPVSNHVYERRLIEKYIAENGTDPINNQPLSEEQLIDIKVAHPIRPKPPSATSIPAILKALQDEWDAVMLHSFTLRQQLQTTRQELSHALYQHDAACRVIARLTKEVTAAREALATLKPQAGLIVPQAVPSSQPSVVGAGEPMDLGELVGMTPEIIQKLQDKATVLTTERKKRGKTVPEELVKPEELSKYRQVASHVGLHSASIPGILALDLCPSDTNKILTGGADKNVVVFDKSSEQILATLKGHTKKVTSVVFHPSQDLVFSASPDATIRIWSVPNASCVQVVRAHESAVTGLSLHATGDYLLSSSDDQYWAFSDIQTGRVLTKVTDETSGCSLTCAQFHPDGLIFGTGTMDSQIKIWDLKERTNVANFPGHSGPITSIAFSENGYYLATAADDSSVKLWDLRKLKNFKTLQLDNNFEVKSLIFDQSGTYLALGGTDVQIYICKQWTEILHFTEHSGLTTGVAFGHHAKFIASTGMDRSLKFYSL
0.62 relative to CDC5L | 1.24 | Spf27 (natural protein) MAGTGLVAGEVVVDALPYFDQGYEAPGVREAAAALVEEETRRYRPTKNYLSYLTAPDYSAFETDIMRNEFERLAARQPIELLSMKRYELPAPSSGQKNDITAWQECVNNSMAQLEHQAVRIENLELMSQHGCNAWKVYNENLVHMIEHAQKELQKLRKHIQDLNWQRKNMQLTAGSKLREMESNWVSLVSKNYEIERTIVQLENEIYQIKQQHGEANKENIRQDF
0.06 relative to CDC5L | 0.12 | CTNNBL1 (natural protein) MDVGELLSYQPNRGTKRPRDDEEEEQKMRRKQTGTRERGRYREEEMTVVEEADDDKKRLLQIIDRDGEEEEEEEEPLDESSVKKMILTFEKRSYKNQELRIKFPDNPEKFMESELDLNDIIQEMHVVATMPDLYHLLVELNAVQSLLGLLGHDNTDVSIAVVDLLQELTDIDTLHESEEGAEVLIDALVDGQVVALLVQNLERLDESVKEEADGVHNTLAIVENMAEFRPEMCTEGAQQGLLQWLLKRLKAKMPFDANKLYCSEVLAILLQDNDENRELLGELDGIDVLLQQLSVFKRHNPSTAEEQEMMENLFDSLCSCLMLSSNRERFLKGEGLQLMNLMLREKKISRSSALKVLDHAMIGPEGTDNCHKFVDILGLRTIFPLFMKSPRKIKKVGTTEKEHEEHVCSILASLLRNLRGQQRTRLLNKFTENDSEKVDRLMELHFKYLGAMQVADKKIEGEKHDMVRRGEIIDNDTEEEFYLRRLDAGLFVLQHICYIMAEICNANVPQIRQRVHQILNMRGSSIKIVRHIIKEYAENIGDGRSPEFRENEQKRILGLLENF
0.36 relative to CDC5L | 0.72 | AD-002 (natural protein) MTTAARPTFEPARGGRGKGEGDLSQLSKQYSSRDLPSHTKIKYRQTTQDAPEEVRNRDFRRELEERERAAAREKNRDRPTREHTTSSSVSKKPRLDQIPAANLDADDPLTDEEDEDFEEESDDDDTAALLAELEKIKKERAEEQARKEQEQKAEEERIRMENILSGNPLLNLTGPSQPQANFKVKRRWDDDVVFKNCAKGVDDQKKDKRFVNDTLRSEFHKKFMEKYIK
